This note sets out measurements from patent US20240310383A1, “Proteomic Risk Score For Osteoarthritis (OA)” (Regeneron Pharmaceuticals, Inc., priority 2023, published 2024).

This experiment concerns patients with pain due to osteoarthritis of the knee or hip. Put plainly: WOMAC pain and functional score improvement in R475-OA-1688 clinical trial, stratified by OA proteomic risk score groups. The class given is in vivo, human.

B1: fasinumab (antibody, chains of the INN, looked up, V domains shown)
VH: QVQLVQSGAEVKKPGASVKVSCKVSGFTLTELSIHWVRQAPGKGLEWMGGFDPEDGETIYAQKFQGRVTMTEDTSTDTAYMELTSLRSEDTAVYYCSTIFGVVTNFDNWGQGTLVTVSS
VL: DIQMTQSPSSLSASAGDRVTITCRASQAIRNDLGWYQQKPGKAPKRLIYAAFNLQSGVPSRFSGSGSGTEFTLTISSLQPEDLASYYCQQYNRYPWTFGQGTKVEIK
notes: anti-NGF antibody (NGF antagonist) tested in phase 3 study R475-OA-1688
For the molecule B1, the “efficacy compared with both NSAIDs or placebo treated patients” value (Fasinumab 1q4w, OA proteomic score high risk group) is on record as “has efficacy benefits”. For the same molecule, the “efficacy compared with either NSAIDs or placebo” value (fasinumab 1q4w, patients in 1st to 3rd OA proteomic score quartiles) is listed as “maintains efficacy superiority”. The “efficacy profile (both WOMAC pain and WOMAC functional scores)” value (patients in 1st to 3rd OA proteomic score quartiles, fasinumab 1q4w, FIG. 9 and FIG. 10) is recorded as “better efficacy profile”.
